This is an account of results in patent US20170298331.

One data set has as its system TALEN TN8 (Artificial). The data set can be described thus: cell_activity. The following applies: pair TN3/8, 17 bp spacer, preceded by 5'-T; Surveyor assay in DMD myoblasts (up to 12.7% and 6.8% in two lines).
In a further data set the test system is TALEN TN3 (Artificial). The data set can be described thus: cell_activity. The following applies: pair TN3/8, 17 bp spacer, preceded by 5'-T; Surveyor assay in DMD myoblasts (up to 12.7% and 6.8% in two lines).

For the sequence “CCTTAGTAACCACAGGT (double strand) [TN8 half-site, DMD exon 51]”, in the data set on TALEN TN8 (Artificial), the activity (% modified alleles) turned out to be 12.7.

Sequence “AGCTCCTACTCAGACT (double strand) [TN3 half-site, DMD exon 51]” registered an activity (% modified alleles) with TALEN TN3 (Artificial) of 12.7.
